Test results: US20240024479A1, “NK CELLS OR T CELLS EXPRESSING CHIMERIC HEMATOPOIETIC GROWTH FACTOR RECEPTORS AND METHODS OF USE” (The United States of America, as represented by the …, priority 2020, published 2024)
One block for each molecule: values may come before it.

Assays:
[1] = molecular target: human thrombopoietin receptor (c-MPL) expressed on transduced NK or T cells (human) (UniProt P40238); assay: cell-based or functional assay
[2] = system: c-MPL transduced NK cells; assay: Proliferation of c-MPL-expressing human NK cells with thrombopoietin mimetics; type: cell-based; conditions: 4-5 days culture
Experimental: FIGS. 16A-16C show proliferation of human NK cells transduced to express GFP and c-MPL cultured for 4-5 days with the indicated concentrations of thrombopoietin (FIG. 16A), romiplostim (FIG. 16B), or eltrombopag (FIG. 16C). […] Mean and SEM of results from 3 blood donors are shown.
NK cells from PBMC from three blood donors were stimulated and transduced to express GFP and c-MPL, then were cultured for 4-5 days with thrombopoietin, romiplostim, or eltrombopag.

[3] = system: NK cells transduced to express MPL or MPL-IL2RB chimeric receptors; assay: Phospho-STAT5 and phospho-S6 signaling in transduced NK cells; type: cell-based, human
primary human NK cells [4] = assay: Chimeric MPL-IL2RB constructs (lentiviral) in primary human NK cells, cell numbers with MPL ligands; type: cell-based; conditions: after 4 days; medium lacking cytokines; lentiviral vectors
Source text: (§1) Lentiviral and retroviral vectors expressing MPL-IL2RB and other chimeric MPL receptors: Lentiviral vectors were created by Vectorbuilder (IL, USA) by insertion of DNA sequences encoding EGFP and chimeric molecules including extracellular, transmembrane, and in some cases, proximal intracellular regions of human MPL (NM_005373.3) fused with partial intracellular domains from human IL2RB (NM_000878.5) using the linkages as shown in FIG. 17. Certain of these chimeric receptor sequences were also inserted into a gamma retroviral vector backbone also encoding EGFP or firefly luciferase. Analogous vectors encoding unmodified MPL (NM_005373.3) were used for comparison. […]
(§2) In vitro cell culture experiments with human NK cells expressing MPL-IL2RB: Approximately 2-4 days after transduction, NK cells were placed in culture with varied concentrations of eltrombopag (Selleckchem, TX, USA) or romiplostim (Amgen, CA, USA); where concentrations are not indicated, 0.33 ug/mL eltrombopag or 1.5 ng/mL romiplostim were used. […] Numbers of GFP^+ cells were quantitated after 4-6 days (or indicated durations) using a BD Fortessa flow cytometer (BD Biosciences, NJ, USA) and compared with initial numbers to determine the fold expansion.

K562 target cells = assay: Degranulation and cytokine production of NK cells expressing MPL-IL2RB or MPL with K562 targets; type: cell-based, human; conditions: for degranulation of cytotoxic granules in response to K562 target cells: 4-day exposure to eltrombopag or romiplostim; for production of IFN-gamma and TNF: culture with eltrombopag or romiplostim and exposure to K562 targets
Experimental: To examine degranulation, cells were washed after two hours and stained with anti-CD107a (H4A3) (BioLegend). To assay cytokine production, GolgiPlug and GolgiStop (BD Biosciences) were added at manufacturer's recommended concentrations within the first hour of co-culture with K562. After 4 hours, cells were washed and stained for cell surface markers, then stained intracellularly with mAb recognizing TNF-α (Mab 11) and IFN-γ (B27) (BD Biosciences).
(§3) In vitro cell culture experiments with human NK cells expressing MPL-IL2RB: Approximately 2-4 days after transduction, NK cells were placed in culture with varied concentrations of eltrombopag (Selleckchem, TX, USA) or romiplostim (Amgen, CA, USA); where concentrations are not indicated, 0.33 ug/mL eltrombopag or 1.5 ng/mL romiplostim were used. Medium and drugs were refreshed by addition of new medium or by changing half the culture volumes every 2-4 days. Numbers of GFP^+ cells were quantitated after 4-6 days (or indicated durations) using a BD Fortessa flow cytometer (BD Biosciences, NJ, USA) and compared with initial numbers to determine the fold expansion.

Human NK cells = assay: Matrix of IL-2 and eltrombopag concentrations, NK cell numbers after 6 days; type: cell-based; conditions: for proliferation in the presence of eltrombopag at high IL-2 concentrations compared with IL-2 alone: 6 days
Experimental: as §3

primary human NK cells [5] = assay: Time course of survival/proliferation of NK cells expressing MPL-IL2RB (retroviral); type: cell-based; conditions: varied concentrations of eltrombopag, romiplostim or thrombopoietin; retroviral vectors
Source text: as §1, §2

Bcl-2 RMFI in c-MPL+ NK-92 cells with TPO [1]: 64.5 RMFI
Bcl-xL RMFI in c-MPL+ NK-92 cells with TPO [1]: 4.52 RMFI
CD107a degranulation of GFP+ MPL+ primary NK cells against K562, TPO plus 25 U/ml IL-2 [1]: 83%
GFP fold-expansion of c-MPL transduced primary T cells, TPO alone, day 6 [1]: 5.96 fold
average percentage of GFP+ MPL+ cells among recovered human cells in blood and spleen of TPO-treated NSG mice (about 10% injected) [1]: 15%
average percentage of GFP+ MPL+ cells among recovered human cells in liver and lung of TPO-treated NSG mice (about 10% injected) [1]: 20%
expansion of c-MPL+ activated T cells, TPO plus LD IL-2, day 6 [1]: 6 to 11.4 fold
fold change of GFP+ c-MPL+ primary NK cells, TPO plus 10 U/ml IL-2, day 6 [1]: 24.3 fold
fold change of GFP+ c-MPL+ primary NK cells, TPO plus 25 U/ml IL-2, day 6 [1]: 34.1 fold
fold expansion of c-MPL+ NK-92 cells with TPO alone, day 8 [1]: 7 fold
fold expansion of c-MPL+ NK-92 cells, TPO plus 1 U/ml IL-2, day 8 [1]: 23.2 fold
mean percentage of dead Raji cells, c-MPL+ NK-92 cells exposed to TPO plus LD IL-2, E:T 1:1 [1]: 84%
mean percentage of dead Raji cells, c-MPL+ NK-92 cells exposed to TPO plus LD IL-2, E:T 10:1 [1]: 85%
pS6 expression (RMFI) in c-MPL+ NK-92 cells, TPO plus LD IL-2 [1]: 11.8 RMFI
percentage of GFP+ MPL+ cells in parallel in vitro cultures of the mixed cells with only TPO [1]: 31%
Molecule: recombinant human thrombopoietin (rhTPO) (from UniProt P40225 22-353) (ligand)

Molecule: romiplostim
proliferation of c-MPL transduced NK cells [2]: induce proliferation
phosphorylated ribosomal protein S6 responses (mTOR activation) ([3]; NK cells expressing either MPL-IL2RB or MPL): induced
phosphorylated STAT5 ([3]; eltrombopag 0.33 μg/ml or romiplostim 1.5 ng/mL, compared with 5 U/mL IL-2): shorter dilution pSTAT5 response

B1: MPL: unmodified human MPL (NM_005373.3), SEQ ID NO: 1, expressed in NK cells for comparison (protein, listed as Homo sapiens)
chain: MPSWALFMVTSCLLLAPQNLAQVSSQDVSLLASDSEPLKCFSRTFEDLTCFWDEEEAAPSGTYQLLYAYPREKPRACPLSSQSMPHFGTRYVCQFPDQEEVRLFFPLHLWVKNVFLNQTRTQRVLFVDSVGLPAPPSIIKAMGGSQPGELQISWEEPAPEISDFLRYELRYGPRDPKNSTGPTVIQLIATETCCPALQRPHSASALDQSPCAQPTMPWQDGPKQTSPSREASALTAEGGSCLISGLQPGNSYWLQLRSEPDGISLGGSWGSWSLPVTVDLPGDAVALGLQCFTLDLKNVTCQWQQQDHASSQGFFYHSRARCCPRDRYPIWENCEEEEKTNPGLQTPQFSRCHFKSRNDSIIHILVEVTTAPGTVHSYLGSPFWIHQAVRLPTPNLHWREISSGHLELEWQHPSSWAAQETCYQLRYTGEGHQDWKVLEPPLGARGGTLELRPRSRYRLQLRARLNGPTYQGPWSSWSDPTRVETATETAWISLVTALHLVLGLSAVLGLLLLRWQFPAHYRRLRHALWPSLPDLHRVLGQYLRDTAALSPPKATVSDTCEEVEPSLLEILPKSSERTPLPLCSSQAQMDYRRLQPSCLGTMPLSVCPPMAESGSCCTTHIANHSYLPLSYWQQP
NK cell numbers in presence of eltrombopag or romiplostim (primary human NK cells [4]): greater cell numbers
degranulation of cytotoxic granules in response to K562 target cells (K562 target cells): augmented degranulation
production of IFN-gamma and TNF (K562 target cells): augmented production
proliferation in the presence of eltrombopag at high IL-2 concentrations compared with IL-2 alone (Human NK cells): deficit in proliferation

B2: MPL-IL2RB: chimeric receptor, SEQ ID NO: 8 (amino acids 1-582, c-MPL; amino acids 583-801, IL2RB) (protein)
chain: MPSWALFMVTSCLLLAPQNLAQVSSQDVSLLASDSEPLKCFSRTFEDLTCFWDEEEAAPSGTYQLLYAYPREKPRACPLSSQSMPHFGTRYVCQFPDQEEVRLFFPLHLWVKNVFLNQTRTQRVLFVDSVGLPAPPSIIKAMGGSQPGELQISWEEPAPEISDFLRYELRYGPRDPKNSTGPTVIQLIATETCCPALQRPHSASALDQSPCAQPTMPWQDGPKQTSPSREASALTAEGGSCLISGLQPGNSYWLQLRSEPDGISLGGSWGSWSLPVTVDLPGDAVALGLQCFTLDLKNVTCQWQQQDHASSQGFFYHSRARCCPRDRYPIWENCEEEEKTNPGLQTPQFSRCHFKSRNDSIIHILVEVTTAPGTVHSYLGSPFWIHQAVRLPTPNLHWREISSGHLELEWQHPSSWAAQETCYQLRYTGEGHQDWKVLEPPLGARGGTLELRPRSRYRLQLRARLNGPTYQGPWSSWSDPTRVETATETAWISLVTALHLVLGLSAVLGLLLLRWQFPAHYRRLRHALWPSLPDLHRVLGQYLRDTAALSPPKATVSDTCEEVEPSLLEILPKSSERTPLPLVTQLLLQQDKVPEPASLSSNHSLTSCFTNQGYFFFHLPDALEIEACQVYFTYDPYSEEDPDEGVAGAPTGSSPQPLQPLSGEDDAYCTFPSRDDLLLFSPSLLGGPSPPSTAPGGSGAGEERMPPSLQERVPRDWDPQPLGPPTPGVPDLVDFQPPPELVLREAGEEVPDAGPREGVSFPWSRPPGQGEFRALNARLPLNTDAYLSLQELQGQDPTHLV
NK cell numbers in presence of eltrombopag or romiplostim (primary human NK cells [4]): greater cell numbers than MPL-expressing NK cells
fold change in cell numbers (primary human NK cells [5]): greater fold change in cell numbers
degranulation of cytotoxic granules in response to K562 target cells (K562 target cells): augmented degranulation
production of IFN-gamma and TNF (K562 target cells): augmented production
intracellular signals (pSTAT5, pS6) induced via receptor ([3]; compared with MPL): comparable to those triggered by MPL
proliferation in the presence of eltrombopag at high IL-2 concentrations compared with IL-2 alone (Human NK cells): comparable numbers
NK cell numbers after 6 days (Human NK cells; low concentrations of IL-2, with eltrombopag): greater numbers
